Assays:
IL2Rb = target: T1, IL2Rb (UniProt P14784); experiment: IP and ELISA; Cys mutant, no arm
T1 sequence (looked up): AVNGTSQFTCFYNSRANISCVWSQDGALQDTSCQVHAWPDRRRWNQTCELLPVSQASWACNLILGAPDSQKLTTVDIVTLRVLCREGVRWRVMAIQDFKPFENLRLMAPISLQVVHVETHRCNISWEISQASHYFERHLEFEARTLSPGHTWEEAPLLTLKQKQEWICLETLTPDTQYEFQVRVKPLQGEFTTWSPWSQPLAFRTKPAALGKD

IL2 receptor gamma = target: T2, IL2 receptor gamma (UniProt P31785); experiment: IP and ELISA; S3 on the Cys
T2 sequence (looked up): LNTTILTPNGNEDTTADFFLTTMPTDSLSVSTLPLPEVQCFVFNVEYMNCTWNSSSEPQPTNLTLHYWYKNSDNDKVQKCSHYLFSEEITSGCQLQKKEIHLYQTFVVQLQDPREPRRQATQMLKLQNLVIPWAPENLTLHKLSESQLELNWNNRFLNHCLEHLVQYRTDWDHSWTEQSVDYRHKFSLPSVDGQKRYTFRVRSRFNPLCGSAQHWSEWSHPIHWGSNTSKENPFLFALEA

binding activity after mutation, % of native IL2 (IL2Rb) [%] | binding activity after conjugating to S3, % of native IL2 (IL2 receptor gamma) [%] | Substance
27 | – | IL2-Leu80Cys (from UniProt P60568 21-153) (ligand)
– | 89.7 | IL2-Thr51Cys (from UniProt P60568 21-153) (ligand)

Reference: US20230158141A1
